# According to article PMC9253517 (The Journal of Experimental Medicine, 2022):
# B1: JR317 (antibody, V domains shown)
# VH: QVQLVESGGGVVQPGKSLRLSCAASGFTFSSYGMHWVRQAPGKGLEWVAVIWYDGSNKYYADSVKGRFTISRDNSKSTLYVQMNSLRAEDTAVYYCARVRTIFRPLDYMDVWGKGTTVTVSS
# VL: SYELTQPPSVSVAPGQTARITCGGNNIGSKSVHWYQQKPGQAPVLVVYDDSARPSGIPERFSGSNSGNAATLTISRVEAGDEADYYCQVWDRDYSSDHLWVFGGGTKLTVL
# B2: JR316 (antibody, V domains shown)
# VH: QVQLVQSGAEVKKPGSSVKVSCKASGGSFSTHGISWVRQAPGQGLEWMGGIIPISGRANYAQNFQGRVTITADESTKTAYMELSSLRSEDTAVYYCARDDRFCDTTKCYGLWFDPWGQGTLVTVSS
# VL: DIQMTQSPSSLSASVGDRVTITCRASQSISTYLNWYQQKPGKAPKVLIYAASTLQSGVPSRFSGSGSGTDFTLTISSLQPEDFATYYCQQTYSSPRAFGQGTKVEIK
# B3: JR062 (antibody, V domains shown)
# VH: EVQLVESGGGLIQPGGSLRLSCAASGFSVSNNYMNWVRQAPGKGLEWLSVIYNAGTTYYAGSVKGRFTISKDNSKNTLYLQLNSLRPEDTAVYYCARGHTGVAALMTGAFDIWGQGTMVTVSS
# VL: QSALTQPPSASGSPGQSVTISCTGTSSDVGGYDYVSWYQQYPGKAPKLMIYEVSKRPSGVPDRFSGSKSGNTASLTVSGLQAEDEADYYCSSYAGNNNWVFGGGTKLTVL
# B4: JR189 (antibody, V domains shown)
# VH: EVQLVESGGGLIQPGGSLRLSCAASGFNVNSNYINWVRQAPGKGLEWVSVIYSSGKTYFADSVKGRFTISRDNSKNTLYLQMNILRAEDTAVYYCATTTTVTPIWGQGTLVTVSS
# VL: DIQMTQSPSALSASVGDRVTFTCRASQDIRNYLGWYQQKPGEAPKLLVYAASSLQSGVPSRFSGSGSGTDFTLTISSLQPEDFATYYCLQDYNYPWTFGQGTKVEIK
# B5: JR162 (antibody, V domains shown)
# VH: EVQLLESGGGLVQQGGSLRLSCAASGFTFSGHAMSWVRQAPGEGLEWVSGISDGGGSTYYADSVRGRFTISRDNSKNTLYLQMNSLRAEDTAVYYCARRGGYCTNTICYTRYYYMDVWGKGTTVTVSS
# VL: DIQMTQSPSSVSASVGDRVTITCRSSQDISSWLAWYQQKPGKAPKLLIFAASSLQSGVPSRFSGSGSGTDFTLTISSLQPEDFATYYCQQANSFPLTFGGGTKVEI
# B6: JR054 (antibody, V domains shown)
# VH: QLQLQESGPRLMKPSETLSLTCSVSGGSISRSHYYWGWIRQPPGKGLEWIGSIYYNGSTYYNPSLRSRVTISVDTTKNQFSLKLSSVTAADTAEYYCARPGPSYYDRSGYNRAEYFQHWGQGTLVTVSS
# VL: IRMTQSPSSLSASVGDRVTITCQASQDISNYLNWYQQKPGKAPKLLIYDASNLETGVPPRFSGSGSGTDFTFTISSLQPEDFATYSCQQYDNLPLTFGGGTKVEIK
# B7: JR311 (antibody, V domains shown)
# VH: QVQLVQSGAEVKKPGASVKVSCKTSGYTFTNYFVHWVRQAPGQGLEWMGWINPNSGGTNYAQTFQAWVTMTRDTSINTAYMELSRLTSDDTAVYYCARDLSFSIVRGVMGYWGQGTLVTVSS
# VL: not shown
# B8: JR057 (antibody, V domains shown)
# VH: VQLVESGGGVVQPGRSLRLSCAASGFTFSSYAMHWVRQAPGKGLEWVALISYDGNNKYYADSVKGRFTVSRDNSKNTLFLQMNSLRAEDTAVYYCARDNEVSAAFDFWGQGTMVTVSS
# VL: EIVLTQSPGTLSLSPGERATLSCRASQSLSSTYLAWYQHKPGQAPRLLIYAASSRATDIPDRFSGSGSGTDFTLTISRLEPEDFAVYYCQQYGGSPMCSFGQGTKLEIK
# B9: JR081 (antibody, V domains shown)
# VH: QVQLVQSGAEVKKPGASVKVSCKASGYIFTAYYMHWVRQAPGQGLEWMGWINPMSGATNYAQRFQGRVTMTRVTMTRDTSITTAYMELSRLRSDDTAVYYCARVNHIVGVTSSDPVYGMDVWGQGTTVTVSS
# VL: QSALTQPASVSGSPGQSITISCTGTSSDVGGYKYVSWYQQHPGKAPKLMIYEVSNRPSGVSSRFSGSKSGYTASLTISGLQAEDEADYYCSSYTNSPTLFYVFGTGTKVTVL
# B10: JR209 (antibody, V domains shown)
# VH: EVQLLESGGGLVQPGQSLRLYCAASGFTFSSHGMSWVRQAPGKGLEWVSSISSSGGRTYDADSVKGRFTISRDNSENTVYLQMNSLRVADTAVYYCVKENGPHRWSGEVHGMDVWGQGTTVTVSS
# VL: QSVLTQPPSVSGAPGQRVTISCTGSSSNIGTGYDVHWYQHLPGTAPKLLIYDNNNRPSGVPDRFSGSKSATSASLAITGLQAEDEGDYYCQSYDTSLSGLAFGGGTKLTVL
# B11: JR202 (antibody, V domains shown)
# VH: VQLVESGGGVVQPGRSLRLSCAASGFTFTTYTLHWVRQAPGKGLEWVAVISYDGNNKYYADSVKGRFTISRDDSKNTLYVQMNSLRAEDTAVYYCARSIGYYTGVDYWGQGTLVTVSS
# VL: NFMLTQPHSVSESPGKTVTISCTGSSGSIAINYVQWYQQRPGSAPITVIYEDNQRPSGVPDRFSGSIDSSSNSASLTISGLKTEDEADYYCQTYHSSTWVFGGGTKLTVL
# B12: JR099 (antibody, V domains shown)
# VH: EVQLVESGGGLVQPGGSLRLSCAASGFTFSDYDMHWVRQVRGKGLEWLSIIGTAGDTYYPDSVKGRFTISRENAKNSLYLQMNSLRVGDTGVYYCARDRASTSGTDGMDVWGQGTTVTVSS
# VL: DIQLTQSPSSLSASVGDRVTITCRASQSISRYLNWYQQRPGKAPKLLIYAAFTLESGVPSRFSGSGSGTDFTLTISSLQAEDFATYHCQQSYSTSALTFGGGTKVEIK
# B13: JR318 (antibody, V domains shown)
# VH: QVQLVQSGAEVKSPGASVKVSCKASGYTFTSYDINWVRQATGQGLEWMGWMNPNSGNTDYAQKFQGRVTMTRDTSISTAYMELSSLRSEDTAIYYCARRSGYYNFGVGTRTNYYYYGMDVWGQGTTVTVSS
# VL: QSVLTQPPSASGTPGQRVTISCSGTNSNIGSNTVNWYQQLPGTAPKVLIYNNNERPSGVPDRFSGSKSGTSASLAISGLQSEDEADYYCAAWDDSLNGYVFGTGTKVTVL
# B14: JR186 (antibody, V domains shown)
# VH: EVQLLESGGGLIPPGGSLRLSCAASGFTFSSYAMSWVRQAPGKGLEWVSGISGSGTDTDEGDSVKGRFTISRDNSKNTLWLQIHTLRVEDTAIYYCAKASRGYVSNFDYFDRWGQGTLVTVSS
# VL: SYELTQPPSVSVAPGETAKITCGGDNIGTKSVHWYLQKAGQAPVLVISDDSNRPSGIPERFSGSNSGNTATLTINRVEGGDEADYYCQVWTSFGAGTRVTVI
# B15: JR206 (antibody, V domains shown)
# VH: EVQLVQSGAEVKKPGESLKISCKGSGFNFSRYWIGWVRQMPGKGLEWMGIIYLGDSDTTYSPSFQGQVTISADKSISTAYLQWSSLKASDTAMFYCATRSGYFYGYETWGQGTLVTVSS
# VL: SYELTQPPSVSVAPGKTAKITCGGNNIGSKTVHWYQQRPGQAPVLVVYDNRDRPSGIPERFSGSNSGNTAALTISRVEAGDEADYYCQVWDSSSDHYVFGTGTKVTVL
# B16: JR308 (antibody, V domains shown)
# VH: QVQLVESGGGVVQPGRSLRLSCAASGFTFSSYGMHWVRQAPGKGLEWVAVISYDGSNKYYADSLKGRFTISRDNSKNTLYLQMNSLRAEDTAVYYCAKEGRGTYYYGSGSCPGGYWGQGTLVTVSS
# VL: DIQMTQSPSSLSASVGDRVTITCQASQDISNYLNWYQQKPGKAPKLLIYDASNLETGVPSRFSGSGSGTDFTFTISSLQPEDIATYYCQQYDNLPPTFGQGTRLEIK
# B17: JR307 (antibody, V domains shown)
# VH: EVQLVESGGGLVQPGGSLRLSCEVSGFTFSNYWMHWVRQAPGKGLVWVSRVDSDGNSTTYADSVNGRFTISRDNAKNTLYLQMKSLRAEDTAIYYCTRDCENCRHWYFDLWGRGTLVTVS
# VL: SYELTQPPSVSVTPGQTARIACGGNNIGTKGVHWYQQRPGQAPVLVVYDDENRPSGIPERFSGSNSGDTATLIITWVEAGDEADYYCQVWHGLSDHPVFGGGTRLTVL
# B18: JR052 (antibody, V domains shown)
# VH: QVQLVQSGAEVKKPGASVKVSCEASGYTFTTYHMHWVRQAPGQGLEWMGIINPSRGSANYAQKFQGRVTMTRDTSTRTVYMELSSLRSEDTALYYCARDPNYYDSSGHKIEYFQHWGQGTLVTVSS
# VL: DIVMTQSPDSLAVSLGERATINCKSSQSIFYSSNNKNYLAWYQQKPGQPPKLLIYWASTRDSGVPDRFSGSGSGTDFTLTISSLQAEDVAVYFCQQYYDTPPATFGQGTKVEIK
# B19: JR070 (antibody, V domains shown)
# VH: QLVQSGPEVKKPGTSVKVSCKASGFTFSSSAMQWVRQARGQGLEWIGWIVVGSGNTNYAQKFQERVTISRDMSTSTAYMEVSSLTSEDAAVYYCAAPNCSRTTCSDGFDIWGQGTMVTVSS
# VL: EIVLTQSPGTLSLSPGERATLSCRASQSVRSSYLAWYQQKPGQAPRLLIYGASSRATGIPDRFSGSGSGTDFTVTISRLEPEDFAVYYCQQYGNSPWTFGQGTKVEIK
# B20: JR312 (antibody, V domains shown)
# VH: QVQLVQSGAEVKKPGSSVKVSCKASGAKPSGVSFSSYAFNWVRRAPGQGLEWVGGIIPIFGPANYAQKFQGRVTITADESTSTAYMELSSLSSEDTAIYYCARERYCNSPDCYSWERGDFDVWGQGTMVTVSS
# VL: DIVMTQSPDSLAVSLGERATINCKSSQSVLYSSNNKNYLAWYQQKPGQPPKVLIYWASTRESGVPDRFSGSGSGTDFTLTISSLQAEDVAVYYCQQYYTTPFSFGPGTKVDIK
# B21: JR235 (antibody, V domains shown)
# VH: EVQLVESGGGLVQPGRSLRLSCAASGFTFDDYAMHWVRQAPGKGLEWVSGISWNSGRIDYADSVKGRFTISRDNAKNSLYLQMNSLRAEDTALYYCAKVSTVTTYLMGYFDLWGRGTLVTVSS
# VL: EIVMTQSPATLSVSPGERATLSCRASQSVSSNLAWFQQKPGQAPRLLIYGASTRATGIPARFSGSGSGTEFILTISSLQSEDFAVYYCQLYSYWPPESSFGQGTKLEIK
# Target: T1, SARS-CoV-2 Wuhan-Hu-1 RBD (SARS-CoV-2, Wuhan-Hu-1 (GenBank …, UniProt P0DTC2))
# Assay: BLI
# Conditions: both partners purified
row,Binder,binding result
1,B1,binds
2,B2,binds
3,B3,binds
4,B4,binds
5,B5,binds
6,B6,binds
7,B7,binds
8,B8,binds
9,B9,binds
10,B10,binds
11,B11,binds
12,B12,binds
13,B13,binds
14,B14,binds
15,B15,binds
16,B16,binds
17,B17,binds
18,B18,binds
19,B19,binds
20,B20,binds
21,B21,binds

# Target: T1, SARS-CoV-2 Wuhan-Hu-1 RBD
# Assay: cell-based or functional assay
# Conditions: not given
row,Binder,"neutralisation IC50, Wuhan-Hu-1 pseudovirus [ng/mL]"
1,B1,34.4
2,B2,10.8
3,B3,2.9
4,B4,7.7
5,B5,4.55
6,B6,51.3
7,B7,> 1000
8,B8,14.2
9,B9,3.47
10,B10,90.1
11,B11,3.54
12,B12,46.3
13,B13,6.52
14,B14,74.2
15,B15,137
16,B16,> 1000
17,B17,> 1000
18,B18,23.9
19,B19,1.93
20,B20,27.1
21,B21,> 1000
